Common to all, as to conditions: remark: other sources report otherwise
For test [1], the target named is T1, ScHSP26 (Saccharomyces cerevisiae), P15992.
T1 chain: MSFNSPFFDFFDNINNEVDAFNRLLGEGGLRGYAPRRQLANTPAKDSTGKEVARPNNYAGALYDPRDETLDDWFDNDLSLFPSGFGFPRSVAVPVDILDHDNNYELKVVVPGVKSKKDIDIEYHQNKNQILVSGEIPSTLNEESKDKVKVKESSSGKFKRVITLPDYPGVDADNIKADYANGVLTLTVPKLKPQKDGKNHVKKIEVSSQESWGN
Kind of test: native MS.

Test [2] addresses T1, ScHSP26 (Saccharomyces cerevisiae), …. Kind of test: SEC-MALS. On the technique in general: SEC sorts molecules by how far they enter the pores of the column.
Test [3] shares this target. Put plainly: native MS.
Test [4] shares this target. Put plainly: native MS.
The target is the same in test [5]. Kind of test: native MS.
Test [6] has the same target. Put plainly: native MS.
The target is the same in test [7]. Put plainly: native MS.
Test [8] has the same target. Kind of test: native MS.

B1: ScHSP26, P15992 1-214 (natural protein)
chain: T1 chain
With B1, the stoichiometry N (in general, a count of units in the complex or per binding partner) is 2 subunits in test [1]; 34 subunits in test [2]; 2 subunits in test [3]; 40 subunits in test [4]; 24 to 42 subunits in test [5]; 32 to 42 subunits in test [6]. In addition, the stoichiometry N is 40 subunits in test [7] and 2 subunits in test [8].
